The target in experiment [1] is T1, F-actin (rabbit skeletal muscle actin, polymerized) (rabbit), P68135. The experiment is described as follows: co-sedimentation; F-actin co-sedimentation, conditions B2 (PIPES pH 6.8, 100 mM NaCl); fixed 6 μM myotilin fragment in 20 μl mixed with pre-polymerized F-actin (0 to 60 μM) in 20 μl; one site-specific binding fit; apparent Kd. To be noted: remark: other sources report otherwise.

The target of experiment [2] is F-actin (rabbit skeletal muscle actin, polymerized), P68135. The experiment is described as follows: F-actin co-sedimentation assay. To be noted: chain shown with the change; for response: 8 μM protein, percentage of theoretical total binding (100%), parent: est. 95, read off a plot.
Experiment [3] concerns the target T1, F-actin (rabbit skeletal muscle actin, …). The experiment is described as follows: co-sedimentation; F-actin co-sedimentation, conditions B1 (HEPES pH 7.4); fixed 16 μM myotilin construct in 20 μl mixed with pre-polymerized F-actin (0–120 μM) in 20 μl; room temperature 30 min, 125,000 × g; densitometry, one site-specific binding fit; apparent Kd. To be noted: remark: other sources report otherwise.

Where a chain is given by its changes, count along the chain named. Names may count otherwise.

B1: Full-length myotilin with N-terminal thioredoxin tag (Trx-MYOT), Q9UBF9 1-498 (natural protein)
chain: MFNYERPKHFIQSQNPCGSRLQPPGPETSSFSSQTKQSSIIIQPRQCTEQRFSASSTLSSHITMSSSAFPASPQQHAGSNPGQRVTTTYNQSPASFLSSILPSQPDYNSSKIPSAMDSNYQQSSAGQPINAKPSQTANAKPIPRTPDHEIQGSKEALIQDLERKLKCKDTLLHNGNQRLTYEEKMARRLLGPQNAAAVFQAQDDSGAQDSQQHNSEHARLQVPTSQVRSRSTSRGDVNDQDAIQEKFYPPRFIQVPENMSIDEGRFCRMDFKVSGLPAPDVSWYLNGRTVQSDDLHKMIVSEKGLHSLIFEVVRASDAGAYACVAKNRAGEATFTVQLDVLAKEHKRAPMFIYKPQSKKVLEGDSVKLECQISAIPPPKLFWKRNNEMVQFNTDRISLYQDNTGRVTLLIKDVNKKDAGWYTVSAVNEAGVTTCNTRLDVTARPNQTLPAPKQLRVRPTFSKYLALNGKGLNVKQAFNPEGEFQRLAAQSGLYESEEL
In the case of B1, in experiment [1], the Kd is 0.29 µM.

B2: Myotilin Ig1Ig2^250–444 (Ig1Ig2 tandem), Q9UBF9 K359A (protein)
chain: PRFIQVPENMSIDEGRFCRMDFKVSGLPAPDVSWYLNGRTVQSDDLHKMIVSEKGLHSLIFEVVRASDAGAYACVAKNRAGEATFTVQLDVLAKEHKRAPMFIYKPQSKAVLEGDSVKLECQISAIPPPKLFWKRNNEMVQFNTDRISLYQDNTGRVTLLIKDVNKKDAGWYTVSAVNEAGVTTCNTRLDVTARP
For the molecule B2, the response in experiment [2] was found to be 72 % bound.

B3: Myotilin Ig1Ig2^250–444 (Ig1Ig2 tandem), Q9UBF9 K354A (protein)
chain: B2 chain with K105A, A110K
With B3, the response in experiment [2] came to 55 % bound.

B4: Myotilin Ig1Ig2^250–444 (Ig1Ig2 tandem), Q9UBF9 Q356A (protein)
chain: B2 chain with Q107A, A110K
For the molecule B4, the response in experiment [2] is 94 % bound.

B5: Myotilin Ig1Ig2^250–444 (Ig1Ig2 tandem), Q9UBF9 R405K (protein)
chain: B2 chain with A110K, R156K
For B5, the Kd in experiment [2] (B1 conditions (asterisk)) worked out at 7.5 µM.

B6: Myotilin Ig1Ig2^250–444 (Ig1Ig2 tandem), Q9UBF9 K411A (protein)
chain: B2 chain with A110K, K162A
For B6, in experiment [2], the response is 87 % bound.

B7: Myotilin Ig1Ig2^250–444 (Ig1Ig2 tandem), Q9UBF9 250-444 (domain or fragment)
chain: B2 chain with A110K
For B7, the values for the Kd in experiment [1] and in experiment [3] were 12.9 µM and 9.2 µM, respectively.

B8: Myotilin Ig1Ig2^250–444 (Ig1Ig2 tandem), Q9UBF9 K367A (protein)
chain: B2 chain with A110K, K118A
With B8, the response in experiment [2] was found to be 87 % bound.

B9: Myotilin Ig1Ig2^250–444 (Ig1Ig2 tandem), Q9UBF9 K358A (protein)
chain: B2 chain with K109A, A110K
For the molecule B9, the response in experiment [2] was found to be 80 % bound.

B10: Myotilin Ig1Ig2^250–444 (Ig1Ig2 tandem), Q9UBF9 K354A; K359A (protein)
chain: B2 chain with K105A
On to B10, for which the response in experiment [2] turned out to be 42 % bound.

Values taken from article PMC8062120.
